Test results reported in the supplement of paper PMC11246515.
± gives the standard deviation of the averaged measurements.

Assay: total protein half-life in vivo (active degradation + dilution); higher = more stable protein
[1] = E. coli NCM3722 delta-clpP delta-lon delta-hslV, growth: N-lim chemostat, doubling time 6 h
[2] = E. coli NCM3722 delta-clpP, growth: N-lim chemostat, doubling time 6 h
[3] = E. coli NCM3722 delta-hslV, growth: N-lim chemostat, doubling time 6 h
[4] = E. coli NCM3722 delta-lon, growth: N-lim chemostat, doubling time 6 h
[5] = E. coli NCM3722 delta-smpB, growth: N-lim chemostat, doubling time 6 h
[6] = wild type E. coli NCM3722, growth: C-lim chemostat, doubling time 3 h
[7] = wild type E. coli NCM3722, growth: C-lim chemostat, doubling time 6 h
[8] = wild type E. coli NCM3722, growth: C-lim chemostat, doubling time 12 h
[9] = wild type E. coli NCM3722, growth: N-lim chemostat, doubling time 6 h
[10] = wild type E. coli NCM3722, growth: P-lim chemostat, doubling time 6 h
[11] = wild type E. coli NCM3722, growth: P-lim chemostat, doubling time 12 h
[12] = wild type E. coli NCM3722, growth: N-lim chemostat, doubling time 12 h

Row | Sequence | total protein half-life in vivo [1] [h] | total protein half-life in vivo [2] [h] | total protein half-life in vivo [3] [h] | total protein half-life in vivo [4] [h] | total protein half-life in vivo [5] [h] | total protein half-life in vivo [6] [h] | total protein half-life in vivo [7] [h] | total protein half-life in vivo [8] [h] | total protein half-life in vivo [9] [h] | total protein half-life in vivo [10] [h] | total protein half-life in vivo [11] [h] | total protein half-life in vivo [12] [h]
1 | MNIVITGGTGLIGRHLIPRLLELGHQITVVTRNPQKASSVLGPRVTLWQGLADQSNLNGVDAVINLAGEPIADKRWTHEQKERLCQSRWNITQKLVDLINASDTPPSVLISGSATGYYGDLGEVVVTEEEPPHNEFTHKLCARWEEIACRAQSDKTRVCLLRTGVVLAPDGGILGKMLPPFRLGLGGPIGSGRQYLAWIHIDDMVNGILWLLDNELRGPFNMVSPYPVRNEQFAHALGHALHRPAILRVPATAIRLLMGESSVLVLGGQRALPKRLEEAGFAFRWYDLEEALADVVR | 7.07 ± 0.37 | 6.1 ± 0.14 | 6.36 ± 0.6 | 5.86 ± 0.6 | 5.71 ± 0.17 | 3.25 ± 0.15 | 5.86 ± 0.16 | 11.09 ± 0.052 | 5.76 ± 0.032 | 5.931 ± 0.026 | 12.38 ± 0.057 | –
2 | MNIVVLISGNGSNLQAIIDACKTNKIKGTVRAVFSNKADAFGLERARQAGIATHTLIASAFDSREAYDRELIHEIDMYAPDVVVLAGFMRILSPAFVSHYAGRLLNIHPSLLPKYPGLHTHRQALENGDEEHGTSVHFVTDELDGGPVILQAKVPVFAGDSEDDITARVQTQEHAIYPLVISWFADGRLKMHENAAWLDGQRLPPQGYAADE | 4.883 ± 0.024 | 4.97 ± 0.32 | 5.15 ± 1.4 | 4.68 ± 0.53 | 4.39 ± 0.18 | 2.94 ± 0.6 | 5.63 ± 2.2 | – | 4.49 ± 0.41 | 5.58 ± 0.33 | – | 9.87 ± 3.2
3 | MNIYTFDFDEIESQEDFYRDFSQTFGLAKDKVRDLDSLWDVLMNDVLPLPLEIEFVHLGEKTRRRFGALILLFDEAEEELEGHLRFNVRH | 4.37 ± 1.1 | 3.85 | 5.5 | 7.32 | 4.41 ± 0.68 | 2.87 | 5.2 | 9.22 ± 0.45 | 4.83 ± 0.14 | 4.26 | 10.1 ± 1.3 | 10.2
4 | MNKHTEHDTREHLLATGEQLCLQRGFTGMGLSELLKTAEVPKGSFYHYFRSKEAFGVAMLERHYAAYHQRLTELLQSGEGNYRDRILAYYQQTLNQFCQHGTISGCLTVKLSAEVCDLSEDMRSAMDKGARGVIALLSQALENGRENHCLTFCGEPLQQAQVLYALWLGANLQAKISRSFEPLENALAHVKNIIATPAV | 5.12 | 4.66 ± 0.51 | > 8 | 6.18 | 4.66 ± 0.14 | 3.13 ± 0.15 | 5.91 ± 0.12 | 11.7 | 7.06 | 5.25 | 12.7 | –
5 | MNKILLVDDDRELTSLLKELLEMEGFNVIVAHDGEQALDLLDDSIDLLLLDVMMPKKNGIDTLKALRQTHQTPVIMLTARGSELDRVLGLELGADDYLPKPFNDRELVARIRAILRRSHWSEQQQNNDNGSPTLEVDALVLNPGRQEASFDGQTLELTGTEFTLLYLLAQHLGQVVSREHLSQEVLGKRLTPFDRAIDMHISNLRRKLPDRKDGHPWFKTLRGRGYLMVSAS [P0AE88] | 5.73 ± 0.89 | 4.96 ± 0.36 | 4.848 ± 0.016 | – | 5.11 ± 0.091 | 3.28 ± 0.5 | 5.44 ± 0.21 | 11.4 ± 0.69 | 6 ± 1.4 | 6.01 ± 0.11 | 10.9 ± 0.17 | 8.76 ± 0.57
6 | MNKKIHSLALLVNLGIYGVAQAQEPTDTPVSHDDTIVVTAAEQNLQAPGVSTITADEIRKNPVARDVSKIIRTMPGVNLTGNSTSGQRGNNRQIDIRGMGPENTLILIDGKPVSSRNSVRQGWRGERDTRGDTSWVPPEMIERIEVLRGPAAARYGNGAAGGVVNIITKKGSGEWHGSWDAYFNAPEHKEEGATKRTNFSLTGPLGDEFSFRLYGNLDKTQADAWDINQGHQSARAGTYATTLPAGREGVINKDINGVVRWDFAPLQSLELEAGYSRQGNLYAGDTQNTNSDSYTRSKYGDETNRLYRQNYALTWNGGWDNGVTTSNWVQYEHTRNSRIPEGLAGGTEGKFNEKATQDFVDIDLDDVMLHSEVNLPIDFLVNQTLTLGTEWNQQRMKDLSSNTQALTGTNTGGAIDGVSTTDRSPYSKAEIFSLFAENNMELTDSTIVTPGLRFDHHSIVGNNWSPALNISQGLGDDFTLKMGIARAYKAPSLYQTNPNYILYSKGQGCYASAGGCYLQGNDDLKAETSINKEIGLEFKRDGWLAGVTWFRNDYRNKIEAGYVAVGQNAVGTDLYQWDNVPKAVVEGLEGSLNVPVSETVMWTNNITYMLKSENKTTGDRLSIIPEYTLNSTLSWQAREDLSMQTTFTWYGKQQPKKYNYKGQPAVGPETKEISPYSIVGLSATWDVTKNVSLTGGVDNLFDKRLWRAGNAQTTGDLAGANYIAGAGAYTYNEPGRTWYMSVNTHF | – | 5.83 | – | – | – | 3.068 ± 0.0056 | 7.39 ± 0.36 | 14.5 ± 2.1 | 6.97 | 6.6 | 12.3 | –
7 | MNKRDAINHIRQFGGRLDRFRKSVGGSGDGGRNAPKRAKSSPKPVNRKTNVFNEQVRYAFHGALQDLKSKPFATFLTVMVIAISLTLPSVCYMVYKNVNQAATQYYPSPQITVYLQKTLDDDAAAGVVAQLQAEQGVEKVNYLSREDALGEFRNWSGFGGALDMLEENPLPAVAVVIPKLDFQGTESLNTLRDRITQINGIDEVRMDDSWFARLAALTGLVGRVSAMIGVLMVAAVFLVIGNSVRLSIFARRDSINVQKLIGATDGFILRPFLYGGALLGFSGALLSLILSEILVLRLSSAVAEVAQVFGTKFDINGLSFDECLLLLLVCSMIGWVAAWLATVQHLRHFTPE [P0AC30] | 6.31 ± 0.59 | 6.43 ± 0.28 | 6.04 ± 0.071 | 6.55 ± 0.64 | 6.02 ± 0.32 | 3.17 ± 0.15 | 5.86 ± 0.36 | 12.5 ± 2.4 | 6.42 ± 0.099 | 5.99 ± 0.82 | 13.5 ± 1.3 | 12.3 ± 1.8
